The text below walks through data of US20210340276A1 (published 2021).

Residue numbers refer to the chain shown, from its start.

This assay has as its target human cancer-specific MUC1 (on breast cancer cell line T-47D cells) (human, UniProt P15941 24-1255, cancer-specific incomplete O-glycosylation (T, Tn, 2,3ST) of the tandem repeat, as described in the background). Nature of the assay: Cell ELISA.

B1: P10-1 Fab (Fab, V domains shown)
VH: QVQLVQSGAEVKKPGASVKVSCKASGYTFTNYGLSWVRQAPGQGLEWMGENHPGSGIIYHNEKFRGRVTLTADRSTSTAYMELSSLRSEDTAVYYCARSSGTRGFAYWGQGTLVTVSS
VL: DVVMTQTPLSLSVTPGQPASISCRSSQSIVHSNGNTYLEWYLQKPGQSPQLLIYRVSNRFSGVPDRFSGSGSGTDFTLKISRVEAEDVGVYYCFQGSHGPWTFGQGTKLEIKR
One may read the Kd as the equilibrium constant for the complex coming apart. Read a high Kd as weaker binding. Regarding B1, the Kd stood at 0.35 nM.

B2: P10-2 Fab (Fab, V domains shown)
VH: B1 VH with A106D
VL: B1 VL
modifications: heavy chain N-terminal glutamine modified into pyroglutamic acid in a great majority of purified antibodies (Example 2)
Molecule B2 returned a Kd of 0.29 nM. This Kd and that of the molecule before are within 1.5-fold of each other.
